Measurements taken from patent publication US20230250148A1 (published 2023).
Like-named read-outs stand apart in the source and are kept apart here. Blank lines part the entries; values can stand above or below the binder they belong to.

How the values were obtained:
[1] = target: T1, biotinylated human complement component C1q (human, UniProt P02745 23-245; P02746 28-253; P02747 29-245, biotinylated, site not stated); test: ELISA, fusion protein coated, biotinylated human C1q at 1000 ng/mL
T1 construct: also called biotinylated-C1q
Method: The binding of insulin-Fc fusion proteins to complement component C1q at pH 7.4 was conducted using an ELISA assay as follows using human complement component C1q. Insulin-Fc fusion proteins were diluted to 10 µg/mL in sodium bicarbonate buffer at pH 9.6 and coated on Maxisorp (Nunc) microtiter plates overnight at 4° C., after which the microplate strips were washed 5 times with PBST (PBS/0.05% Tween-20) buffer and blocked with Superblock blocking reagent (ThermoFisher). […] The plate absorbance was read in an ELISA plate reader at 450 nm (OD450), and the OD450 values (proportional to the binding of complement component C1q to insulin-Fc protein) were plotted against log concentrations of complement component C1q added to each well to generate binding curves using GraphPad Prism software. […] In order to further compare differences across multiple insulin-Fc fusion proteins run at different times, the human C1q assay OD450 Ratio was calculated as the OD450 of a test insulin-Fc fusion protein compound obtained at a biotinylated-C1q concentration of 1000 ng/mL, divided by the OD450 of a reference insulin-Fc fusion protein of SEQ ID NO: 76 obtained at a biotinylated-C1q concentration of 1000 ng/mL.

[2] = target: T2, human insulin receptor (IR) on human IM-9 cells (human, UniProt P06213 28-1382); test: competition with biotinylated RHI on IM-9 cells, flow cytometry, 4 C
T2 construct: whole, on cells; also called human IR
Method: (§1) 40 µL of an IM-9 cell suspension (8×10⁶ cells/mL) was then added to each well by multichannel pipette, mixed again gently and incubated on ice for 30 min to allow competitive binding on the IR on IM-9 cells. Cells were then washed twice with 275µL of ice-cold FACS wash buffer (HBSS/2mM EDTA/0.1% Na-azide + 0.5% horse serum) by centrifuging the V-bottom plate at 3000 rpm for 3 min and aspirating the supernatant. Cells were then resuspended in 40µL of FACS staining medium containing 1:100 diluted Streptavidin-PE (Life Technologies) for 20 min on ice. Cells were then washed once with 275 µL of ice-cold FACS buffer and finally fixed with 3% paraformaldehyde for 10 min at room temp. Cells were then washed once with 275 µL of ice-cold FACS buffer and resuspended in 250µl of FACS buffer for analysis.
Next, the insulin-Fc fusion protein of SEQ ID NO: 76 was evaluated for the potential for in vivo bioactivity.

[3] = target: T3, biotinylated human FcRn (human, UniProt P55899 24-297; P61769 21-119, limits assumed, biotinylated, site not stated); test: ELISA pH 5.5, fusion protein coated, biotinylated human FcRn titrated
T3 construct: Bought reagent (Immunitrack); composition not described; also called human FcRn receptor
Method: Insulin-Fc fusion proteins comprising Fc fragments were diluted to 10 µg/mL in sodium bicarbonate pH 9.6 buffer and coated in duplicate on Maxisorb ELISA plate strips for 1-2 hours at RT. The strips were then washed 5 times with PBST (PBS/0.1% Tween-20) buffer and blocked with Superblock blocking reagent (ThermoFisher). Strips for FcRn binding were then washed again 3 times with pH 5.5 MES/NaCl/Tween (50 mM MES/150mM NaCl/0.1% Tween-20) buffer before addition of the FcRn reagent (biotinylated human FcRn; Immunitrack). Serial dilutions (1:3X dilutions) of biotinylated FcRn reagent were prepared in pH 5.5 MES/NaCl/Tween/5%Superblock buffer at concentrations from 6000 ng/mL to 8.23 ng/mL and loaded at 100 µL/well using a multichannel pipettor onto the strips coated with the insulin-Fc fusion protein compounds. The assay plate was then incubated for 1.5 hours at room temperature. FcRn binding strips were washed 4 times with pH 5.5 MES/NaCl/Tween buffer and then loaded with 100 µl/well streptavidin-HRP diluted 1:10000 in pH 5.5 MES/NaCl /5%Superblock buffer. After incubating for 45 minutes, strips were washed again 5 times with pH 5.5 MES/NaCl/Tween buffer. […] The plate was read in an ELISA plate reader at a wavelength of 450 nm. […] EC50 values for each binding curve were calculated to compare between different compounds.

[4] = target: T4, biotinylated recombinant human Fc(gamma)RI (human, UniProt P12314 16-288, biotinylated, site not stated); test: ELISA, fusion protein coated, biotinylated rhFc(gamma)RI at 3000 ng/mL
T4 construct: Bought reagent; construct not described; also called rhFc(gamma)RI; Fc(gamma) receptor I
Method: The binding of insulin-Fc fusion proteins to the Fc(gamma)RI at pH 7.4 was conducted using an ELISA assay as follows using human Fc(gamma)RI (i.e., rhFc(gamma)RI). Insulin-Fc fusion proteins were diluted to 10 µg/mL in sodium bicarbonate buffer at pH 9.6 and coated on Maxisorp (Nunc) microtiter plates overnight at 4° C., after which the microplate strips were washed 5 times with PBST (PBS/0.05% Tween-20) buffer and blocked with Superblock blocking reagent (ThermoFisher). […] The plate was read in an ELISA plate reader at 450 nm, and the OD450 values (proportional to the binding of rhFc(gamma)RI to insulin-Fc protein) were plotted against log concentrations of rhFc(gamma)RI added to each well to generate binding curves using GraphPad Prism software. […] In order to compare differences across multiple insulin-Fc fusion proteins run at different times, the human Fc(gamma)RI assay OD450 Ratio was calculated as the OD450 value of a test insulin-Fc fusion protein compound obtained at a biotinylated-Fc(gamma)RI concentration of 3000 ng/mL, divided by the OD450 value of a reference insulin-Fc fusion protein of SEQ ID NO: 76 obtained at a biotinylated-Fc(gamma)RI concentration of 3000 ng/mL.

[5] = target: T2, human insulin receptor (IR) on human …; test: competition with biotinylated RHI on IM-9 cells, flow cytometry, 4 C; remark: listed apart in the source
Method: as §1
(§2) The insulin-Fc fusion proteins were manufactured in HEK293 cells according to Example 1 and purified using a Protein A column according to Example 4. Their structures were confirmed according to Example 6 by non-reducing and reducing CE-SDS, and the sequences were further identified by LC-MS with glycan removal according to Example 8. Their %homodimer content was measured by size-exclusion chromatography according to Example 10, and their insulin receptor binding affinities were measured according to Example 12.

[6] = target: T2, human insulin receptor (IR) on human …; test: as above; remark: listed apart in the source
Method: as §1, §2

[7] = target: T2, human insulin receptor (IR) on human …; test: as above; remark: listed apart in the source
Method: as §1, §2

[8] = target: biotinylated canine FcRn (canine, UniProt A0A8I3PFR8 25-347, biotinylated, site not stated); test: ELISA pH 5.5, fusion protein coated, biotinylated canine FcRn titrated
Method: Insulin-Fc fusion proteins comprising Fc fragments of canine origin were diluted to 10 µg/ml in sodium bicarbonate pH 9.6 buffer and coated in duplicate on Maxisorb ELISA plate strips for 1-2 hours at RT. The strips were then washed 4 times with PBST (PBS/0.1% Tween-20) buffer and blocked with Superblock blocking reagent (ThermoFisher). Strips for FcRn binding were then washed again twice with pH 5.5 MES/NaCl/Tween (50 mM MES/150mM NaCl/0.1% Tween-20) buffer before addition of the FcRn reagent (biotinylated canine FcRn; Immunitrack). Serial dilutions (1:3X dilutions) of biotinylated FcRn reagent were prepared in pH 5.5 MES/NaCl/Tween/10%Superblock buffer at concentrations from 1000 ng/ml to 0.45 ng/mL and loaded at 100 µL/well using a multichannel pipettor onto the strips coated with the insulin-Fc fusion protein compounds. The assay plate was then incubated for 1 hour at room temperature. FcRn binding strips were washed 4 times with pH 5.5 MES/NaCl/Tween buffer and then loaded with 100 µl/well streptavidin-HRP diluted 1:10000 in pH 5.5 MES/NaCl /10%Superblock buffer. After incubating for 45 minutes, strips were washed again 4 times with pH 5.5 MES/NaCl/Tween buffer. […] The plate was read in an ELISA plate reader at a wavelength of 450 nm. […] EC50 values for each binding curve were calculated to compare between different compounds.

[9] = target: T4, biotinylated recombinant human …; test: ELISA, fusion protein coated, biotinylated rhFc(gamma)RI at 3000 ng/mL; remark: listed apart in the source
Method: The binding of insulin-Fc fusion proteins to the Fc(gamma)RI at pH 7.4 is conducted using an ELISA assay as follows using human Fc(gamma)RI (i.e., rhFc(gamma)RI). Insulin-Fc fusion proteins are diluted to 10 µg/mL in sodium bicarbonate buffer at pH 9.6 and coated on Maxisorp (Nunc) microtiter plates overnight at 4° C., after which the microplate strips are washed 5 times with PBST (PBS/0.05% Tween-20) buffer and blocked with Superblock blocking reagent (ThermoFisher). Serial dilutions of biotinylated rhFc(gamma)RI (recombinant human Fc(gamma)RI; R&D Systems) are prepared in PBST/10% Superblock buffer from 3000 ng/mL to 4.1 ng/mL and loaded at 100 µL/well onto the microplate strips coated with insulin-Fc fusion protein. The microtiter plate is incubated for 1 hour at room temperature after which time the microplate strips are washed 5 times with PBST and then loaded with 100 µL/well of streptavidin-HRP diluted 1:10000 in PBST/10% Superblock buffer. After incubating for 45 min, the microplate strips are washed again 5 times with PBST. TMB is added to reveal the bound Fc(gamma)RI proteins and is stopped with ELISA stop reagent (Boston Bioproducts). The plate is read in an ELISA plate reader at 450 nm, and the OD450 values (proportional to the binding of rhFc(gamma)RI to insulin-Fc protein) are plotted against log concentrations of rhFc(gamma)RI added to each well to generate binding curves using GraphPad Prism software. For groupings of compounds with somewhat similar curves, the OD450 at one of the higher concentrations, for instance at rhFc(gamma)RI concentrations of 3000 ng/mL, can be used to identify differences between coated insulin-Fc fusion protein compounds. […]
Finally, select compounds were tested for their likelihood to interact with the immune system by measuring their Fc(gamma) receptor binding activity according to the procedure of Example 15.

OD450 Ratio (reference SEQ ID NO: 76) [1]: 0.309
IC50 [2]: 1730 nM
EC50 [3]: 0.462 µg/mL
OD450 Ratio (reference SEQ ID NO: 76) [4]: 0.045
B1: insulin-Fc fusion protein of SEQ ID NO: 75 (Fc fusion)
chain: FVNQHLCGSHLVEALELVCGERGFHYGGGGGGSGGGGGIVEQCCTSTCSLDQLENYCGGGGGQGGGGQGGGGQGGGGGECPPCPAPPVAGPSVFLFPPKPKDTLMISRTPEVTCVVVDVSHEDPEVQFNWYVDGVEVHNAKTKPREEQFNSTFRVVSVLTVVHQDWLNGKEYKCKVSNKGLPAPIEKTISKTKGQPREPQVYTLPPSREEMTKNQVSLTCLVKGFYPSDIAVEWESNGQPENNYKTTPPMLDSDGSFFLYSKLTVDKSRWQQGNVFSCSVMHEALHNHYTQKSLSLSPG

IC50 [5]: 2340 nM
IC50 [6]: 2340 nM
IC50 [7]: 2340 nM
EC50 [8]: 0.599 µg/mL
OD450nm [9]: 0.368
OD450nm minus assay background [9]: 0.311
ratio to SEQ ID NO: 36 [9]: 0.84
B2: insulin-Fc fusion protein of SEQ ID NO: 26 (Fc fusion)
chain: FVNQHLCGSHLVEALELVCGERGFHYGGGGGGSGGGGGIVEQCCTSTCSLDQLENYCGGGGGQGGGGQGGGGQGGGGGDCPKCPAPEMLGGPSVFIFPPKPKDTLLIARTPEVTCVVVDLDPEDPEVQISWFVDGKQMQTAKTQPREEQFNGTYRVVSVLPIGHQDWLKGKQFTCKVNNKALPSPIERTISKARGQAHQPSVYVLPPSREELSKNTVSLTCLIKDFFPPDIDVEWQSNGQQEPESKYRTTPPQLDEDGSYFLYSKLSVDKSRWQRGDTFICAVMHEALHNHYTQESLSHSPG
modifications: native N-glycosylation site cNg-NB151
